Two molecules from article PMC3325269, “Non-Agonistic Bivalent Antibodies That Promote c-MET Degradation and Inhibit Tumor Growth and Others Specific for Tumor Related c-MET” (PLoS ONE, 2012) can be followed below.

As a reminder, the Kd is the free concentration of one partner at which half of the binding sites on the other are occupied at equilibrium, for simple one-to-one binding.

The target in assay [1] is T1, c-MET on the surface of A549 lung cancer cells (Homo sapiens (A549), UniProt P08581).
T1 construct: c-MET, the receptor for hepatocyte growth factor/scatter factor, as expressed on cells; also called surface c-MET; c-MET receptor; source: endogenous, on A549 cells (U87MG cells in one down-regulation assay)
Description: flow cytometry on cells; A549 cells, 10 µg/ml of each LMH antibody in 1% HSA/PBS, 1 h at 4°C; anti-mouse IgG-PE secondary. The note with it: one partner purified.

For assay [2], the target named is T2, mature c-MET (disulphide-linked α/β heterodimer) (Homo sapiens (A549), UniProt P08581).
T2 construct: c-MET α-chain, extracellular 50 kDa product of furin cleavage of the precursor; c-MET β-chain, extracellular/intracellular 145 kDa product of furin cleavage of the precursor, contains the TK domain; Detected in the immunoprecipitates by the 145 kDa β-chain band (mAb 25H2); also called mature receptor; source: endogenous, A549 lysate
Description: co-IP; immunoprecipitation of endogenous c-MET from A549 lysates (Triton X-100 lysis buffer) with the LMH antibody; membranes blotted with mAb 25H2. The following applies: one partner purified.

Assay [3] deals with T3, c-MET extracellular domain (Homo sapiens, UniProt P08581).
T3 construct: c-MET extracellular domain; also called immobilized c-MET extracellular domain
Description: SPR; BIAcore; c-MET extracellular domain immobilized, different concentrations of purified LMH antibodies (intact IgG). The note with it: both partners purified. On the technique in general: SPR reads the build-up and loss of mass on a sensor chip optically.

T1 sequence (P08581 25-1390): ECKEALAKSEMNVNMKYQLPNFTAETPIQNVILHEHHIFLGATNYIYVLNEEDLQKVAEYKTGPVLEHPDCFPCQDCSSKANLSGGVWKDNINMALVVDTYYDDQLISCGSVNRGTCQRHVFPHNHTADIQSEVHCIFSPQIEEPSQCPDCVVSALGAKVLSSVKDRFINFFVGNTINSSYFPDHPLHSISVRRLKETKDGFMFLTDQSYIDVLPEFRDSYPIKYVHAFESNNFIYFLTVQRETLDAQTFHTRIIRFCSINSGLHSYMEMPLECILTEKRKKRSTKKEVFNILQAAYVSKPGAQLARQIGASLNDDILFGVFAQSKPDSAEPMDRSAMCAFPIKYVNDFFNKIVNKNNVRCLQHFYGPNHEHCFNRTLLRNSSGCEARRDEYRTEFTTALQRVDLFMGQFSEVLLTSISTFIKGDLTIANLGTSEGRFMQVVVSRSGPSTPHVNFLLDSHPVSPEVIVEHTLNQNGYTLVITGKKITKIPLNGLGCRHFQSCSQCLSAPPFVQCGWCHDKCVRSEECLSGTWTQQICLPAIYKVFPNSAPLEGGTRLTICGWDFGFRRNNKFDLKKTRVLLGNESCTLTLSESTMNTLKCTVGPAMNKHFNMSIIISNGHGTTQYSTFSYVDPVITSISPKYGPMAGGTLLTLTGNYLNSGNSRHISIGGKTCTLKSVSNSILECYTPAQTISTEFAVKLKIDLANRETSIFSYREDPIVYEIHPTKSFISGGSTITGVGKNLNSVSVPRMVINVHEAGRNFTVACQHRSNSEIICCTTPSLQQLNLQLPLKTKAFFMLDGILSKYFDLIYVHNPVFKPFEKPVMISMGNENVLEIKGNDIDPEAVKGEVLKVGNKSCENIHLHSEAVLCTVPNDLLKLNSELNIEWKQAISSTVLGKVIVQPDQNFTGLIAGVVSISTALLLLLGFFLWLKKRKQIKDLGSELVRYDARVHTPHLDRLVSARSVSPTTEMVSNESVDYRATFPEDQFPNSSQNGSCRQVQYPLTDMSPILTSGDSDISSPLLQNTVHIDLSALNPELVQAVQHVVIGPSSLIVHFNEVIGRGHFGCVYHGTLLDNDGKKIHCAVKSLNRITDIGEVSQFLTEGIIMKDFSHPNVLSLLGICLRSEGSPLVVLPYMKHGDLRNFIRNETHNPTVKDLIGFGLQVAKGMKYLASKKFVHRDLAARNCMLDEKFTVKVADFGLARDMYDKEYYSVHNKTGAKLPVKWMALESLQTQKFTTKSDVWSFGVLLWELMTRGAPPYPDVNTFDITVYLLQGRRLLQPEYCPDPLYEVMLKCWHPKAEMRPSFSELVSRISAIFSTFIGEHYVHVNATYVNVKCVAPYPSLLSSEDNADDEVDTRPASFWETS
T3 sequence (P08581 25-932): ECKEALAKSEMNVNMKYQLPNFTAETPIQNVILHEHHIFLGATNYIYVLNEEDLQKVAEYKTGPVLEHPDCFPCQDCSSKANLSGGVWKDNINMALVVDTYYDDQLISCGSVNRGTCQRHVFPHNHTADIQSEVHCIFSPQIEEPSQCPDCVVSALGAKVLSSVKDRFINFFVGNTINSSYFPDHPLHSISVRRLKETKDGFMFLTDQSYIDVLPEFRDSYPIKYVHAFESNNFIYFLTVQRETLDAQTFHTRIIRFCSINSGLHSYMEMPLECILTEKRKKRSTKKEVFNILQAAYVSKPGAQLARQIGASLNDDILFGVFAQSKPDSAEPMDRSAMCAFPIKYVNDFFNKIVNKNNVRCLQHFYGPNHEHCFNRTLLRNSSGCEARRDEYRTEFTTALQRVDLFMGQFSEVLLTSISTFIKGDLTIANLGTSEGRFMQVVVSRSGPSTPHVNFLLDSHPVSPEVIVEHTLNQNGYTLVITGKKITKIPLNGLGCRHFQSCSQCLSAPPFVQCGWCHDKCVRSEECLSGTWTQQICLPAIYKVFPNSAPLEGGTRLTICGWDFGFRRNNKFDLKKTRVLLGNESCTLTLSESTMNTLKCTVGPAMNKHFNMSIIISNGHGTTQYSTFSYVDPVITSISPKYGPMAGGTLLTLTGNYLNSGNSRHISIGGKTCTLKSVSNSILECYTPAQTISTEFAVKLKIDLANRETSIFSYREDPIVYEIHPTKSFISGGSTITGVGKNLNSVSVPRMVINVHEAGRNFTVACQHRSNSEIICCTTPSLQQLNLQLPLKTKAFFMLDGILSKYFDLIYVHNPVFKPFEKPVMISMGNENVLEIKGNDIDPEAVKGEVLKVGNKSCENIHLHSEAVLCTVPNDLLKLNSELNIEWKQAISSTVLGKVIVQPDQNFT

B1: LMH 85 (antibody, V domains shown)
VH: QVQLQQSGAELAKPGASVKMSCKASGYTFIIYWIHWIKQRPGQGLEWIGYINPSNDYTEYNQKFKDKATLTADKSSNTAFMQLSSLTSEDSAVYYCARDSYDYDDGAYAMDYWGQGTSVTVSS
VL: QIVLSQSPAILSASPGEKVTMTCRASSGVNYMHWYQQKPGSSPKPWIYATSNLASGVPARFSGSGSGTSYSLTISRVEAEDAATYYCQQWISHPFTFGSGTKLEIK
notes: VH domain; heavy chain constant region of a mouse IgG; VL domain; light chain constant region of a mouse antibody; Intact bivalent mouse monoclonal antibody, agonist of c-MET; also called LMH 85 antibody; mAb LMH 85; source: clonal supernatants in the screening ELISA; copies: 2 + 2
As to B1, the binding result in assay [1] and in assay [2] was “binds” each time.

B2: LMH 87 (antibody, V domains shown)
VH: QVQLQQSGPELVKSGASVKMSCKASGNTLKDDHVHWVKQRPGQGLEWIGWIYPGGGRTRYNEKFKGKTTLTADKPSSTVNMLLSSLTSEDSAIYFCTNLVFDVWGAGTTVTVSS
VL: DIVMTQAAPSVPVTPGESVSISCRSSKSLLHSNGNTYLYWFLQRPGQSPQVLIYRMSNLASGVPDRFSGSGSGTAFTLRIRRVEAEDVGVYYCMQNLEYPFTFGGGTKLEIK
notes: VH domain; heavy chain constant region of a mouse IgG; VL (Vk) domain; light chain constant region of a mouse antibody (the methods call the variable segment Vk); Intact bivalent mouse monoclonal antibody; also called LMH 87 antibody; mAb LMH 87; source: clonal supernatants in the screening ELISA; copies: 2 + 2
As for B2, the Kd in assay [3] came out at 2.6 nM. In other words, the single-digit nanomolar range.
